Measurements: article doi:10.1101/2021.11.29.470362 (bioRxiv, 2021)

Molecular target: SARS-CoV-2 S-protein extracellular domain (ECD) (SARS-CoV-2, Wuhan-Hu-1 (ancestral), biotin, site-specific (BirA reaction) on the AviTag)
Experiment: BLI

B1: IgG 15033 (antibody, V domains shown)
VH: EVQLVESGGGLVQPGGSLRLSCAASGFDLGGYSMHWVRQAPGKGLEWVAGIYASGGATAYADSVKGRFTISADTSKNTAYLQMNSLRAEDTAVYYCARSYYYGGFGMDYWGQGTLVTVSS
VL: DIQMTQSPSSLSASVGDRVTITCRASQSVSSAVAWYQQKPGKAPKLLIYSASDLYSGVPSRFSGSRSGTDFTLTISSLQPEDFATYYCQQSYRYPITFGQGTKVEIK
- Kd: 100 pM

B2: peptide-IgG 33^LN1 (peptide N1 fused to the N-terminus of the LC of IgG 15033) (antibody, V domains shown)
VH: B1 VH
VL: B1 VL
- Kd: < 1 pM

B3: peptide-IgG 33^HR1 (peptide R1 fused to the N-terminus of the HC of IgG 15033) (antibody, V domains shown)
VH: B1 VH
VL: B1 VL
- Kd: < 1 pM
